Test results from patent US20210238281A1 (INSTITUT NATIONAL DE LA SANTE ET DE LA RECHERCHE MEDICALE …, published 2021).

T1: murine FcγRI (murine, UniProt P26151 25-297)
T1 construct: also called FcγRIA; CD64
T1 sequence (looked up): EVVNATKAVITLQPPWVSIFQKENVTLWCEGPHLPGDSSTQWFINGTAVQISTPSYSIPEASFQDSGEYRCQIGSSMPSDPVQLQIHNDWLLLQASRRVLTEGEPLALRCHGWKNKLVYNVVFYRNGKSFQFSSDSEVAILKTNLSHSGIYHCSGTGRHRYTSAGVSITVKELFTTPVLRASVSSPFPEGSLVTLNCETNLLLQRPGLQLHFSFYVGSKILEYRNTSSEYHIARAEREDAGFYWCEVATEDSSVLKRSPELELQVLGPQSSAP

T2: murine FcγRIII (murine, UniProt P08508 31-215)
T2 sequence (looked up): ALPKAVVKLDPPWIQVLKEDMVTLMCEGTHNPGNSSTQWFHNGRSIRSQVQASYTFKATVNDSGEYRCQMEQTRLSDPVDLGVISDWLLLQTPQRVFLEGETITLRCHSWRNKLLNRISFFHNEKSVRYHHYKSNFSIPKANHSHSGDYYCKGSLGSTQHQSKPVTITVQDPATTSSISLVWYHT

T3: murine FcγRIV (murine, UniProt A0A0B4J1G0 21-203)
T3 sequence: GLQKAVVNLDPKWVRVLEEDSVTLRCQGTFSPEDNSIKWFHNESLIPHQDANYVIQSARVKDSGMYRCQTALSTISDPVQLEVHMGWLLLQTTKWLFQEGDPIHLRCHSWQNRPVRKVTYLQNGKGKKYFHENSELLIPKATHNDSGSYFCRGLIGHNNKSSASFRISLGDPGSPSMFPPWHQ

T4: murine FcγRIIB (murine, UniProt P08101 30-207, limits assumed)
T4 sequence (looked up): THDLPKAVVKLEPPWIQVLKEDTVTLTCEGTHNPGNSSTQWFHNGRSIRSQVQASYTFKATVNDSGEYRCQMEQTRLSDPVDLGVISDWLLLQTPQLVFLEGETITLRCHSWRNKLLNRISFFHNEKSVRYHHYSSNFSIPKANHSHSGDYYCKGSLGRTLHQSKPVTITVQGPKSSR

B1: recombinant murine monoclonal antibody 8-18C5 (8-18C5-WT) (antibody, mouse IgG1, kappa)
heavy: EVKLHESGAGLVKPGASVEISCKATGYTFSSFWIEWVKQRPGHGLEWIGEILPGRGRTNYNEKFKGKATFTAETSSNTAYMQLSSLTSEDSAVYYCATGNTMVNMPYWGQGTTVTVSSAKTTPPSVYPLAPGSAAQTNSMVTLGCLVKGYFPEPVTVTWNSGSLSSGVHTFPAVLESDLYTLSSSVTVPSSPRPSETVTCNVAHPASSTKVDKKIVPRDCGCKPCICTVPEVSSVFIFPPKPKDVLTITLTPKVTCVVVDISKDDPEVQFSWFVDDVEVHTAQTQPREEQFNSTFRSVSELPIMHQDWLNGKEFKCRVNSAAFPAPIEKTISKTKGRPKAPQVYTIPPPKEQMAKDKVSLTCMITDFFPEDITVEWQWNGQPAENYKNTQPIMNTNGSYFVYSKLNVQKSNWEAGNTFTCSVLHEGLHNHHTEKSLSHSPGK
light: DIELTQSPSSLAVSAGEKVTMSCKSSQSLLNSGNQKNYLAWYQQKPGLPPKLLIYGASTRESGVPDRFTGSGSGTDFTLTISSVQAEDLAVYYCQNDHSYPLTFGAGTKLEIKRADAAPTVSIFPPSSEQLTSGGASVVCFLNNFYPKDINVKWKIDGSERQNGVLNSWTDQDSKDSTYSMSSTLTLTKDEYERHNSYTCEATHKTSTSPIVKSFNRNEC
notes: Murine IgG1 (consensus IGHG1*01 constant domain) produced in HEK or YB2/0 cells; also called mAb 8-18C5; YB2
B2: 8-18C5-Del variant of the recombinant murine antibody 8-18C5 (antibody, mouse IgG1, kappa)
heavy: EVKLHESGAGLVKPGASVEISCKATGYTFSSFWIEWVKQRPGHGLEWIGEILPGRGRTNYNEKFKGKATFTAETSSNTAYMQLSSLTSEDSAVYYCATGNTMVNMPYWGQGTTVTVSSAKTTPPSVYPLAPGSAAQTNSMVTLGCLVKGYFPEPVTVTWNSGSLSSGVHTFPAVLESDLYTLSSSVTVPSSPRPSETVTCNVAHPASSTKVDKKIVPRDCGCKPCICTVPEVSSVFIFPPKPKDVLTITLTPKVTCVVVDISKDDPEVQFSWFVDDVEVHTAQTQPREQFNSTFRSVSELPIMHQDWLNGKEFKCRVNSAAFPAPIEKTISKTKGRPKAPQVYTIPPPKEQMAKDKVSLTCMITDFFPEDITVEWQWNGQPAENYKNTQPIMNTNGSYFVYSKLNVQKSNWEAGNTFTCSVLHEGLHNHHTEKSLSHSPGK
light: DIELTQSPSSLAVSAGEKVTMSCKSSQSLLNSGNQKNYLAWYQQKPGLPPKLLIYGASTRESGVPDRFTGSGSGTDFTLTISSVQAEDLAVYYCQNDHSYPLTFGAGTKLEIKRADAAPTVSIFPPSSEQLTSGGASVVCFLNNFYPKDINVKWKIDGSERQNGVLNSWTDQDSKDSTYSMSSTLTLTKDEYERHNSYTCEATHKTSTSPIVKSFNRNEC
modifications: Fc N-glycan highly sialylated (antibody produced in YB2/0 cells); the letters do not carry it.
notes: Murine IgG1, produced in YB2/0 cells; also called m8-18C5-Del

Assays:
Assay in all cases: ELISA, IgG aggregated with anti-IgG F(ab')2-HRP on coated FcγR
[1] = target: T1, murine FcγRI
Experimental: (§1) The binding of the 8-18C5-WT and 8-18C5-Del antibodies to human or murine FcγRs was measured by ELISA after incubation, with the F(ab′)2 of goat anti-human IgG HRP for 2 h at room temperature (at a final concentration of 0.5 μg/ml for each molecule) with gentle stirring. The IgGs aggregated to the F(ab′)2 were then incubated with gentle agitation for 1 h at 30° C. on the Maxisorp or NiNTA immunoplates previously coated with the FcγR and saturated with PBS-BSA 4%.

[2] = target: T2, murine FcγRIII
Experimental: as §1

[3] = target: T3, murine FcγRIV
Experimental: as §1

[4] = target: T4, murine FcγRIIB
Experimental: as §1

Binder	binding result [1]	binding result [2]	binding result [3]	binding result [4]
B1	no binding (tested: 0.5 µg/ml)	binds	no binding (tested: 0.5 µg/ml)	binds
B2	no binding (tested: 0.5 µg/ml)	no binding (tested: 0.5 µg/ml)	no binding (tested: 0.5 µg/ml)	no binding (tested: 0.5 µg/ml)
